Assay results published in PMC7784741.

Legend:
[1] = biological target: YAP-binding domain of TEAD from Anabas testudineus (residues 211-428) (Anabas testudineus); assay: SPR
[2] = biological target: YAP-binding domain of human TEAD4, TEAD4 217-434 (human) (UniProt Q15561); assay: SPR
YAP-binding domain of human TEAD4, TEAD4 217-434 (human), sequence (Q15561 217-434): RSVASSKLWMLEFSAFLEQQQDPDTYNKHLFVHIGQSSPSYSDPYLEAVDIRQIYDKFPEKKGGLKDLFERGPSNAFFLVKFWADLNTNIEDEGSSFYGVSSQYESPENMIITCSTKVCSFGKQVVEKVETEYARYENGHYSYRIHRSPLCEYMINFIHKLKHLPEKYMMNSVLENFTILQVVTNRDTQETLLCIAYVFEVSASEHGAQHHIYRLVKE

Substance | Kd [1] | Kd [2]
synthetic peptide of the TEAD-binding domain of YAP, Anabas testudineus_1 (residues 21-59) | 0.099 µM | 0.071 µM
synthetic peptide of the TEAD-binding domain of YAP, Anabas testudineus_2 (residues 21-60) | 0.06 µM | 
